Target: IL-23-p40 (human) (UniProt P29460)
Test: Binding ELISA: IL-23-p40 coated at 2 ug/ml, antibody dilution series 0 to 5 ug/ml, goat anti-human IgG secondary antibody, OD450 (reference 650 nm). The sheet prints no unit on the x axis; ng/ml follows from the range in paragraph 77 (highest point at 5000)

Chain of IL-23-p40 (human) (P29460 23-328 limits assumed): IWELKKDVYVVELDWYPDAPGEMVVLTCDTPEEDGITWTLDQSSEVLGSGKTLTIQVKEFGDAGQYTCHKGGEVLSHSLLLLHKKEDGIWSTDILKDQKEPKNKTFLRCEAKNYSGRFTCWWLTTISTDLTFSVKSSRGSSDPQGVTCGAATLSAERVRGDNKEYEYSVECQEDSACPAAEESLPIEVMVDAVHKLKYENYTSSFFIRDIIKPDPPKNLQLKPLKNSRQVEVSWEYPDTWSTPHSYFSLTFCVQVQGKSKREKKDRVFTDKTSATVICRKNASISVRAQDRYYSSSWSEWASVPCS

IL-23 p40 specific antibody QX001S showed an EC50 of 0.0179 µg/mL.
